Experimental data published in US20030166021A1 (WISTAR INSTITUTE OF ANATOMY AND BIOLOGY, published 2003).
Ends that are not written are not given here.

T1: protein kinase C (PKC) peptide FTRHPPVLTPPDQEVI test bait (rat, also: fused to LexA DNA binding domain (order, linker not given here))
T1 construct: Negative control bait in the two hybrid mating test; also called peptide derived from rat protein kinase Cβ2
T1 chain: FTRHPPVLTPPDQEVI

T2: cell cycle protein p107 (UniProt P28749 1-1068, limits assumed)
T2 sequence (looked up): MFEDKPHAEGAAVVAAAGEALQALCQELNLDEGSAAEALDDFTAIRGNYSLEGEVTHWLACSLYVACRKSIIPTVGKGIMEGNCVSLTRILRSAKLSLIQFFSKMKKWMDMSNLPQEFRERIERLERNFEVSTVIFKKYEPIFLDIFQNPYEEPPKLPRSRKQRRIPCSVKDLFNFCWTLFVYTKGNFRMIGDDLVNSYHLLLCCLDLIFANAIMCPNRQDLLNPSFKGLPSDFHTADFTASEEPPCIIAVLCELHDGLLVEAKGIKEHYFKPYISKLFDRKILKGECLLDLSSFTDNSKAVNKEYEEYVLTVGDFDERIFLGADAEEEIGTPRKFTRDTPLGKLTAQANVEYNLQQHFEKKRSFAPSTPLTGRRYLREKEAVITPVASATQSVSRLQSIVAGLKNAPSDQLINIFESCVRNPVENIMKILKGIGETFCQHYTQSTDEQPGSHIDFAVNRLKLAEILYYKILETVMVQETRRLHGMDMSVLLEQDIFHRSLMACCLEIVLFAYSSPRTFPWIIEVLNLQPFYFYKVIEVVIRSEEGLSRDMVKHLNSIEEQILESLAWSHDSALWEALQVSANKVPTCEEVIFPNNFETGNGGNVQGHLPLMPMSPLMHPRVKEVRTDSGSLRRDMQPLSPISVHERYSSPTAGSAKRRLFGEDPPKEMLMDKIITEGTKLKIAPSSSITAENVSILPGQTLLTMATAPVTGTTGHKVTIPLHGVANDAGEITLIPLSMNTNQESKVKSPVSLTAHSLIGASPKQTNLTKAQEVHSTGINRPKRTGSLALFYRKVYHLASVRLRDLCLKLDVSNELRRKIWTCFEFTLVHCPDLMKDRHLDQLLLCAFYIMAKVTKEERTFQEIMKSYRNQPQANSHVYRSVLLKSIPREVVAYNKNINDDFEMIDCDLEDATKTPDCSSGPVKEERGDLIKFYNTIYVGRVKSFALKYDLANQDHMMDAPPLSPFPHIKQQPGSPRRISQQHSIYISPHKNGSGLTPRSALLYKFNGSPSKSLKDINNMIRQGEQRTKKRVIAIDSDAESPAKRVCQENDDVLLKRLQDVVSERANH


Key:
[1] = biological target: T3, LexA-MB1 fusion protein (human c-Myc Myc box 1 peptide, amino acids 47-62) (human); assay: yeast two hybrid, mating test with LexA baits
T3 construct: also called MB1 bait; lexA-MB1 peptide construct

[2] = biological target: T4, small GTP-binding protein RhoB test bait (UniProt P62745 1-196, limits assumed); assay: yeast two hybrid mating test with negative control baits
T4 construct: Negative control bait in the two hybrid mating test

[3] = biological target: T1, protein kinase C (PKC) peptide …; assay: as above
Max = Max (UniProt P61244 1-160, limits assumed); assay: GST pull-down
cell cycle protein p107 = biological target: T2, cell cycle protein p107; assay: GST pull-down
[4] = biological target: transcription factor YY 1 (UniProt P25490 1-414, limits assumed); assay: GST pull-down
[5] = biological target: extracellular protein PAI-1 (UniProt P05121 24-402, limits assumed); assay: GST pull-down
[6] = biological target: small GTP-binding protein RhoB (tested for GST-ATG99 interaction) (UniProt P62745 1-196, limits assumed); assay: GST pull-down
[7] = biological target: T5, c-Myc with both MB1 (49-101) and MB2 (120-140) deletions (human, UniProt P01106 1-48; P01106 102-119; P01106 141-439); assay: GST pull-down of 35S-labelled IVT protein
T5 construct: range 1-48; also called CMV Hm subclone containing both deletions

[8] = biological target: T6, SV40 large T antigen (vector pTag) (SV40, UniProt P03070 1-708); assay: GST pull-down of 35S-labelled IVT protein
T6 construct: 35S-labelled in vitro translated protein

USF (vector CMV-USF) = biological target: T7, USF (vector CMV-USF) (UniProt P22415 1-310, limits assumed); assay: GST pull-down of 35S-labelled IVT protein
T7 construct: 35S-labelled in vitro translated protein
T7 sequence (P22415 whole entry): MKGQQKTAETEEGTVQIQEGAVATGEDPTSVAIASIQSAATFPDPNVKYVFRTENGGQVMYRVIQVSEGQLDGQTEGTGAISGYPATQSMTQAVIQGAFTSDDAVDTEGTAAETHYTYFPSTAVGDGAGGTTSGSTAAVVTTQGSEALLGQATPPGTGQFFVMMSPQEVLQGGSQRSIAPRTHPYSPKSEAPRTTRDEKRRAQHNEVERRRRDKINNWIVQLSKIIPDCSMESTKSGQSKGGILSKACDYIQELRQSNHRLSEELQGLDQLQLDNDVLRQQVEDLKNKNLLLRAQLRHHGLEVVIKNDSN

T4 sequence (P62745 whole entry): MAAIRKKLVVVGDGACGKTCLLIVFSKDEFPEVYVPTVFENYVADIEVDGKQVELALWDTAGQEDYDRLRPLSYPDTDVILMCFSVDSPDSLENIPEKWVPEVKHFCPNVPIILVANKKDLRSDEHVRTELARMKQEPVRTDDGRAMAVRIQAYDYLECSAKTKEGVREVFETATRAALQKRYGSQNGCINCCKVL
small GTP-binding protein RhoB (tested for GST-ATG99 interaction), sequence (P62745 whole entry): as above
transcription factor YY 1, sequence (P25490 whole entry): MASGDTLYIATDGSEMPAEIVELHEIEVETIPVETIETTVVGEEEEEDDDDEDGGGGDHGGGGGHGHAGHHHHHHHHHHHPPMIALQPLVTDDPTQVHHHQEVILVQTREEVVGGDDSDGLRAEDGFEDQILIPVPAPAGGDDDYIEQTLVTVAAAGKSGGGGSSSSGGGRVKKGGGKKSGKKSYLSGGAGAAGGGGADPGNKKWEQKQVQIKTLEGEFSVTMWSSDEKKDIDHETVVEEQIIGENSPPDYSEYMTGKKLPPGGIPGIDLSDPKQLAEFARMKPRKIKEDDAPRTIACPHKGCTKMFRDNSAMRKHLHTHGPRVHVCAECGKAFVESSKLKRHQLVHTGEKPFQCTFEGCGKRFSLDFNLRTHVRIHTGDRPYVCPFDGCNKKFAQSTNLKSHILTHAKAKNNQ
T5 sequence (P01106 other isoform, or with tags, fused parts or gaps limits assumed): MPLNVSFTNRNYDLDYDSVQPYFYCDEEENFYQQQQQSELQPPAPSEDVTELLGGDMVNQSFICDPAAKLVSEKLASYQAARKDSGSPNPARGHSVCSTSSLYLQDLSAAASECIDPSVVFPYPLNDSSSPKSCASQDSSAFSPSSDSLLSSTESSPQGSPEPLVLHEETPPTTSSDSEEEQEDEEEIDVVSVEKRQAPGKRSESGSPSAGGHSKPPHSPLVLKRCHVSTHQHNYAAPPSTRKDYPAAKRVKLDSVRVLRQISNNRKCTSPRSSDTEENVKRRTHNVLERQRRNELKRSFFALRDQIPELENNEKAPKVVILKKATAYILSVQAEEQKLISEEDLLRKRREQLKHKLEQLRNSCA
Max, sequence (P61244 whole entry): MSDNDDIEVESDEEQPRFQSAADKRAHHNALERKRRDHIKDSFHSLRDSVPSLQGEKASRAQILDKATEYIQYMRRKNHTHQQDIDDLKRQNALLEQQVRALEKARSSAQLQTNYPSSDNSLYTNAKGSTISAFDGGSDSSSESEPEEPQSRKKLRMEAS
extracellular protein PAI-1, sequence (P05121 24-402 limits assumed): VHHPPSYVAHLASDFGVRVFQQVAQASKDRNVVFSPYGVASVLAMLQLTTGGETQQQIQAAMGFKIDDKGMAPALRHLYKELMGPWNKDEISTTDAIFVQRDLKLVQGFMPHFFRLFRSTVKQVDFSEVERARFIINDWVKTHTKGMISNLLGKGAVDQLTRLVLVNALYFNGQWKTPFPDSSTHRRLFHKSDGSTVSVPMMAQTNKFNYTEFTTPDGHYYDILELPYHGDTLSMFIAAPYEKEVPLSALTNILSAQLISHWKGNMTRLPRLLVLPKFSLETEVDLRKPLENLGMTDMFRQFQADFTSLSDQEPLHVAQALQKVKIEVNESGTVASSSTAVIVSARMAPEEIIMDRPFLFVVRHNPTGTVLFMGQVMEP

Binder	binding result [1]	binding result [2]	binding result [3]	binding result (Max)	binding result (cell cycle protein p107)	binding result [4]	binding result [5]	binding result [6]	binding result [7]	binding result [8]	binding result (USF (vector CMV-USF))
murine Bin1 135 amino acid polypeptide (clone #99 ORF) as VP16 fusion from the two hybrid cDNA library (other, Prey of the yeast two hybrid screen) EIRVNHEPEPASGASPGAAIPKSPSQPAEASEVVGGAQEPGETAASEATSSSLPAVVVETFSATVNGAVEGSAGTGRLDLPPGFMFKVQAQHDYTATDTDELQLKAGDVVLVIPFQNPEEQDEGWLMGVKESD	binds	no binding	no binding	–	–	–	–	–	–	–	–
GST-ATG99 polypeptide (glutathione-S-transferase fusion of the 135 aa murine Bin1 polypeptide) (other, Expressed in E. coli, purified on glutathione-Sepharose; not shown: glutathione-S-transferase of vector pGEX-2T (Pharmacia); 15 amino acid N-terminal extension with initiator methionine (3 amino acids from E47 and 12 amino acids from VP16); lett) EIRVNHEPEPASGASPGAAIPKSPSQPAEASEVVGGAQEPGETAASEATSSSLPAVVVETFSATVNGAVEGSAGTGRLDLPPGFMFKVQAQHDYTATDTDELQLKAGDVVLVIPFQNPEEQDEGWLMGVKESD	–	–	–	no binding	no binding	no binding	no binding	no binding	no binding	no binding	no binding
